In US20260174847A1, “METHODS OF TREATING DIGESTIVE DISEASES AND COMPOSITIONS THEREOF” (PTM Therapeutics, Inc., priority 2023, published 2026):
Positions count from the first letter of the chain named.

B1: Clone 4770: Humanized IgG1 antibody, heavy chain variable region HvCh3 (SEQ ID NO: 3), light chain LiCh2 (SEQ ID NO: 6) (antibody, V domains shown)
VH: EVQLVESGGGLVQPGGSLRLSCAASGFTFSTNAMSWVRQAPGKGLEWVARLRPKSDNYATYYADSVKGRFTISRDDSKNTLYLQMNSLRAEDTAVYYCVTGTGFWGQGTTLTVSS
VL: DIVMTQSPDSLAVSLGERVTMNCKSSQSLLNSGNQKNYLTWYQQKPGQPPKLLIYWTSTRESGVPDRFSGSGSGTDFTLTISSVQAEDVAVYYCQNDYTSPYTFGQGTKLEIK
B2: Clone 4769: Humanized IgG1 antibody, heavy chain variable region HvCh3 (SEQ ID NO: 3), light chain LiCh1 (SEQ ID NO: 5) (antibody, V domains shown)
VH: B1 VH
VL: B1 VL with V19A, M21I, V84L
B3: Clone 4772: Humanized IgG1 antibody, heavy chain variable region HvCh3 (SEQ ID NO: 3), light chain LiCh4 (SEQ ID NO: 8) (antibody, V domains shown)
VH: B1 VH
VL: B1 VL with I54F
B4: Clone 4766: Humanized IgG1 antibody, heavy chain variable region HvCh2 (SEQ ID NO: 2), light chain LiCh2 (SEQ ID NO: 6) (antibody, V domains shown)
VH: B1 VH with D76N
VL: B1 VL
B5: Clone 4768: Humanized IgG1 antibody, heavy chain variable region HvCh2 (SEQ ID NO: 2), light chain LiCh4 (SEQ ID NO: 8) (antibody, V domains shown)
VH: B1 VH with D76N
VL: B1 VL with I54F
B6: Clone 4765: Humanized IgG1 antibody, heavy chain variable region HvCh2 (SEQ ID NO: 2), light chain LiCh1 (SEQ ID NO: 5) (antibody, V domains shown)
VH: B1 VH with D76N
VL: B1 VL with V19A, M21I, V84L
B7: Clone 4771: Humanized IgG1 antibody, heavy chain variable region HvCh3 (SEQ ID NO: 3), light chain LiCh3 (SEQ ID NO: 7) (antibody, V domains shown)
VH: B1 VH
VL: B1 VL with V19A, M21I, I54F, V84L

Test: SPR (Biocore T100) binding affinity to sLeA
Settings: Example 3, Table 7, mean
Method: (§1) An in vitro evaluation of the binding affinity to sLeA and sLeC of the humanized antibodies from Example 1 were performed using a Biocore T100 SPR biosensor using a CM7 sensor chip with PBS-p (0.005% Tween-20) running buffer at 25 degrees Celsius. The antibodies were couples to ˜30,000 RU at 50 ug/ml in 10 mM NaAcetate pH 5.0 over an NHS/EDC activated surface. A reference surface was activated and blocked to serve as a control. Carbohydrate samples (sLeA, sLeC and sialyl Lewis X (all from Dextra Labs)) were dissolved in PBS-p running buffer up to a stock concentration of 10 mM. Each was then prepared in a 2-fold dilution series up to 300 μM and each concentration series was tested over the antibody surfaces. Response data were processed by subtracting the responses from the reference surfaces as well as a buffer injection. Binding constants were determined at 25 degrees Celsius.
(§2) Seven of the humanized antibody clones from Example 1 were tested for binding affinity to sLeA, sLeC and […]. Methods used were similar to those described in Example 2 above, except with sLeX only at one concentration of 300 μM.

Molecule	Kd
B1	69.1 µM
B2	81.3 µM
B3	48.3 µM
B4	621 µM
B5	552 µM
B6	732 µM
B7	59.2 µM

Test: SPR (Biocore T100) binding affinity to sLeC
Settings: Example 3, Table 7, mean
Method: as §1, §2

Molecule	Kd
B1	93.2 µM
B2	104 µM
B3	77.1 µM
B4	538 µM
B5	460 µM
B6	306 µM
B7	85.4 µM
